T1: Boi1 SH3 (BOI1_YEAST), P38041
T1 chain: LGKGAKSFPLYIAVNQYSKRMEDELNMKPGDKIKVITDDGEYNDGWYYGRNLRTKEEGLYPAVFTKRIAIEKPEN

T2: Boi2 SH3 (BOI2_YEAST), P39969
T2 chain: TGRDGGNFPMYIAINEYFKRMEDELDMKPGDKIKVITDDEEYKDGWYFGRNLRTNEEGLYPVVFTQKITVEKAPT

T3: Myo5 SH3 (MYO5_YEAST), Q04439
T3 chain: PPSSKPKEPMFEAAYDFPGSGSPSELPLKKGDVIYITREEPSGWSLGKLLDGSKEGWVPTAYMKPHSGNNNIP

T4: Rvs167 SH3 (RV167_YEAST), P39743
T4 chain: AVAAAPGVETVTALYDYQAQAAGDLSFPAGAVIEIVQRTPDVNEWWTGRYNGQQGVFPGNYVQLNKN

T5: Yfr024 SH3 (LSB3_YEAST), P43603
T5 chain: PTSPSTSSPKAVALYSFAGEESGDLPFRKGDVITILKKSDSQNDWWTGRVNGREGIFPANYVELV

T6: Yhr016c SH3 (YSC84_YEAST), P32793
T6 chain: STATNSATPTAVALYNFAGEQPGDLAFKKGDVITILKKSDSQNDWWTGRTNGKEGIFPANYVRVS

B1: YKL182W 717-730 (peptide)
chain: INIAKAHPNFPIAL
B2: YHR102W 535-548 (peptide)
chain: INNNKMRPHLPPLS
B3: YHR014W 144-157 (peptide)
chain: INVEREAPMFPVPY
B4: YBL088C 2501-2514 (peptide)
chain: IRTYKVVPLGPKAG
B5: YDL202W 181-194 (peptide)
chain: INTFKTLPTKPEMQ
B6: YPR091C 658-671 (peptide)
chain: ISNRRPVPRRPSQP
B7: YLR290C 162-175 (peptide)
chain: ISADKGFPLIPSGY
B8: YNL064C 352-365 (peptide)
chain: ILPPRIVPAIPKKA
B9: YNL023C 312-325 (peptide)
chain: INGEKASPFLPSSL
B10: YER164W 1330-1343 (peptide)
chain: INNTRLSPNSPTPP
B11: YMR219W 1471-1484 (peptide)
chain: ITAEKSAPTSPEVY
B12: YLR129W 367-380 (peptide)
chain: IPYEKRDPTSPAPL
B13: YMR049C 642-655 (peptide)
chain: IMDAKFHPFKPQLF
B14: YBR028C 374-387 (peptide)
chain: IQQNKQGPKIPFYL
B15: YER132C 703-716 (peptide)
chain: ISHNKLSPSEPILS
B16: YNR039C 117-130 (peptide)
chain: IPAPKLVPPPPRTR

Molecular target: T1, Boi1 SH3 (BOI1_YEAST), P38041
Experiment: SPOT array

| normalised SPOT signal, Boehringer light units (BLU); mean over the file's lines of this peptide | Binder |
| --- | --- |
| 53.5 | B1 |
| 1310 | B2 |
| 75.5 | B3 |
| 146 | B4 |
| 37.3 | B5 |
| 4610 | B6 |
| 30.1 | B7 |
| 227 | B8 |
| 100 | B9 |
| 58.4 | B10 |
| 92.4 | B11 |
| 43.8 | B12 |
| 121 | B13 |
| 107 | B14 |
| 0 | B15 |
| 17300 | B16 |

Molecular target: T2, Boi2 SH3 (BOI2_YEAST), P39969
Experiment: SPOT array

| normalised SPOT signal, Boehringer light units (BLU); mean over the file's lines of this peptide | Binder |
| --- | --- |
| 20.4 | B1 |
| 646 | B2 |
| 1.3 | B3 |
| 38.8 | B4 |
| 11.5 | B5 |
| 56.9 | B6 |
| 16.8 | B7 |
| 29 | B8 |
| 23.2 | B9 |
| 6.8 | B10 |
| 0 | B11 |
| 7.7 | B12 |
| 42.4 | B13 |
| 12.3 | B14 |
| 34 | B15 |
| 26.7 | B16 |

Molecular target: T3, Myo5 SH3 (MYO5_YEAST), Q04439
Experiment: SPOT array

| normalised SPOT signal, Boehringer light units (BLU); mean over the file's lines of this peptide | Binder |
| --- | --- |
| 196 | B1 |
| 1000 | B2 |
| 149 | B3 |
| 100 | B4 |
| 167 | B5 |
| 377 | B6 |
| 113 | B7 |
| 3670 | B8 |
| 184 | B9 |
| 140 | B10 |
| 94.2 | B11 |
| 114 | B12 |
| 246 | B13 |
| 86.9 | B14 |
| 206 | B15 |
| 82300 | B16 |

Molecular target: T4, Rvs167 SH3 (RV167_YEAST), P39743
Experiment: SPOT array

| normalised SPOT signal, Boehringer light units (BLU); mean over the file's lines of this peptide | Binder |
| --- | --- |
| 10.4 | B1 |
| 1550 | B2 |
| 36.9 | B3 |
| 38.5 | B4 |
| 73.4 | B5 |
| 82100 | B6 |
| 32.4 | B7 |
| 17600 | B8 |
| 50.3 | B9 |
| 31.5 | B10 |
| 3.5 | B11 |
| 58.4 | B12 |
| 213 | B13 |
| 23.5 | B14 |
| 48.3 | B15 |
| 294 | B16 |

Each binder was assayed against Sho1 SH3 (SHO1_YEAST), P40073 (assay: SPOT array).
Sho1 SH3 (SHO1_YEAST), P40073, sequence (P40073 295-366): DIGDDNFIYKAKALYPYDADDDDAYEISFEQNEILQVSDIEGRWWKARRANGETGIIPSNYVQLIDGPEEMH

| normalised SPOT signal, Boehringer light units (BLU); mean over the file's lines of this peptide | Binder |
| --- | --- |
| 42.9 | B1 |
| 649 | B2 |
| 49.4 | B3 |
| 61.2 | B4 |
| 14500 | B5 |
| 129 | B6 |
| 32.9 | B7 |
| 38.5 | B8 |
| 19 | B9 |
| 42.9 | B10 |
| 116 | B11 |
| 29.3 | B12 |
| 94.3 | B13 |
| 19.8 | B14 |
| 19.4 | B15 |
| 99.1 | B16 |

Molecular target: T5, Yfr024 SH3 (LSB3_YEAST), P43603
Experiment: SPOT array

| normalised SPOT signal, Boehringer light units (BLU); mean over the file's lines of this peptide | Binder |
| --- | --- |
| 0 | B1 |
| 4850 | B2 |
| 24.3 | B3 |
| 115 | B4 |
| 110 | B5 |
| 36800 | B6 |
| 38.2 | B7 |
| 3560 | B8 |
| 12.1 | B9 |
| 58.4 | B10 |
| 63.9 | B11 |
| 51.8 | B12 |
| 813 | B13 |
| 19 | B14 |
| 0 | B15 |
| 3260 | B16 |

Molecular target: T6, Yhr016c SH3 (YSC84_YEAST), P32793
Experiment: SPOT array

| normalised SPOT signal, Boehringer light units (BLU); mean over the file's lines of this peptide | Binder |
| --- | --- |
| 2.8 | B1 |
| 1230 | B2 |
| 19.4 | B3 |
| 44.5 | B4 |
| 14.5 | B5 |
| 17200 | B6 |
| 14.4 | B7 |
| 3210 | B8 |
| 33.2 | B9 |
| 7.1 | B10 |
| 71.1 | B11 |
| 26.9 | B12 |
| 84.6 | B13 |
| 5 | B14 |
| 22.7 | B15 |
| 167 | B16 |

From PMC314469, “Protein Interaction Networks by Proteome Peptide Scanning” (PLoS Biology, 2004)
